Substrate in series [1]: pNPB
The experiment in a line: Proxy for plastic degradation [Km]. Conditions: pH 7.

Substrate in series [2]: pNPB
In words: Proxy for plastic degradation [kcat] (s⁻¹). Conditions: pH 7.

Substrate in series [3]: PET
In words: Proxy for plastic degradation [Released monomer concentration (HPLC/LC-MS) (BA)]. Conditions: pH 7.

Substrate in series [4]: PET
The experiment in a line: Proxy for plastic degradation [Released monomer concentration (HPLC/LC-MS) (HEB)]. Conditions: pH 7.

Substrate in the next series: MHET
The experiment in a line: Proxy for plastic degradation [Released monomer concentration (HPLC/LC-MS) (MHET)]. The settings on record: pH 7.

Substrate in series [5]: PET
In words: Proxy for plastic degradation [Released monomer concentration (HPLC/LC-MS) (MHET+BA, TA, HEB)]. Conditions: pH 7.

Substrate in the next series: p-NP-C2
The settings on record: pH 7, 25 °C.

Substrate in another series: p-NP-C4
The settings on record: pH 7, 25 °C.

Substrate in series [6]: pNP-C2
In words: Proxy for plastic degradation [Km]. The settings on record: pH 7.

Substrate in series [7]: pNP-C2
The experiment in a line: Proxy for plastic degradation [kcat] (s⁻¹). Conditions: pH 7.

Substrate in series [8]: PET
The experiment in a line: Proxy for plastic degradation [Water contact angle]. The settings on record: pH 7.

Substrate in series [9]: PET
In words: Proxy for plastic degradation [Released monomer concentration (HPLC/LC-MS) (TPA)] (mmol/mol enzyme). Conditions: pH 7.

Substrate in series [10]: PET
The experiment in a line: Proxy for plastic degradation [Released monomer concentration (HPLC/LC-MS) (TPA+MHET+BA+HEB)] (mmol/mol enzyme). Conditions: pH 7.

Substrate in series [11]: PET
The experiment in a line: Proxy for plastic degradation [Released monomer concentration (HPLC/LC-MS) (BA (benzoic acid))] (mmol/mol enzyme). Conditions: pH 7.

Substrate in series [12]: PET
In words: Proxy for plastic degradation [Released monomer concentration (HPLC/LC-MS) (HEB (2-hydroxyethyl benzoate))] (mmol/mol enzyme). The settings on record: pH 7.

Substrate in series [13]: PET
In words: Proxy for plastic degradation [Surface fluorescence after BrNP labelling]. Conditions: pH 7; part of the chain shown.

Here are results for 4 proteins from the PETadex activity labels (doi:10.1021/ma200949p).

Where a chain is given by its changes, count along the chain named.

B1: unnamed (protein)
chain: MAVMTPRRERSSLLSRALQVTAAAATALVTAVSLAAPAHAANPYERGPNPTDALLEASSGPFSVSEENVSRLSASGFGGGTIYYPRENNTYGAVAISPGYTGTEASIAWLGERIASHGFVVITIDTITTLDQPDSRAEQLNAALNHMINRASSTVRSRIDSSRLAVMGHSMGGGGTLRLASQRPDLKAAIPLTPWHLNKNWSSVTVPTLIIGADLDTIAPVATHAKPFYNSLPSSISKAYLELDGATHFAPNIPNKIIGKYSVAWLKRFVDNDTRYTQFLCPGPRDGLFGEVEEYRSTCPF
On to B1, for which the “Proxy for plastic degradation” value with pNPB [1] is 2100 µM; in the series with pNPB [2], 30.9; in the series with PET [3], 23 mmol/mol; with PET [4], 22 mmol/mol; with MHET it was 15 mmol/mol; with MHET (50 °C), 7 mmol/mol. Besides, the “Proxy for plastic degradation” value with PET [5] was determined as 49 mmol/mol.

B2: unnamed (protein)
chain: MANPYERGPNPTDALLEARSGPFSVSEENVSRLSASGFGGGTIYYPRENNTYGAVAISPGYTGTEASIAWLGERIASHGFVVITIDTITTLDQPDSRAEQLNAALNHMINRASSTVRSRIDSSRLAVMGHSMGGGGSLRLASQRPDLKAAIPLTPWHLNKNWSSVRVPTLIIGADLDTIAPVLTHARPFYNSLPTSISKAYLELDGATHFAPNIPNKIIGKYSVAWLKRFVDNDTRYTQFLCPGPRDGLFGEVEEYRSTCPF
A word on the Km: it is the concentration of substrate that gives half-maximal velocity. As a reminder, the kcat is the number of substrate molecules converted per active site and unit of time at saturation. Broadly, the kcat/Km is the second-order rate constant that governs catalysis at low substrate concentration. On to B2, for which the Michaelis constant (Km) was 167 µM in the series with p-NP-C2 and 2100 µM with p-NP-C4. The kcat came to 39.5 s⁻¹ with p-NP-C2 and 30.9 s⁻¹ with p-NP-C4. The kcat/Km in the series with p-NP-C2 is 237000 M⁻¹ s⁻¹; in the series with p-NP-C4, 14700 M⁻¹ s⁻¹. Moreover, the “Proxy for plastic degradation” value with pNP-C2 [6] worked out at 167 µM; in the series with pNPB [1], 2100 µM; with pNP-C2 [7], 39.5; with pNPB [2] it was 30.9; with PET [8] it was 71.2 °; with PET [9] it was 42. Moreover, the “Proxy for plastic degradation” value amounted to 64 with PET [10] (2 h); 830 in the series with PET [10] (24 h); 1820 with PET [10] (72 h); 22.7 in the series with PET [11]; 23.4 with PET [12].

B3: unnamed (protein)
chain: B2 chain with R19S, S137T, R166T, L183A, R187K, T195S
As for B3, the Km with p-NP-C2 (part of the chain shown) was 127 µM; with p-NP-C4 (part of the chain shown) it was 1480 µM. In addition, the kcat came out at 212 s⁻¹ with p-NP-C2 (part of the chain shown) and 195 s⁻¹ in the series with p-NP-C4 (part of the chain shown). Further, the results for the kcat/Km with p-NP-C2 (part of the chain shown) and with p-NP-C4 (part of the chain shown) were 1.67e+06 M⁻¹ s⁻¹ and 132000 M⁻¹ s⁻¹, respectively. Moreover, the “Proxy for plastic degradation” value is 127 µM in the series with pNP-C2 [6] (part of the chain shown); 1480 µM with pNPB [1] (part of the chain shown); 212 in the series with pNP-C2 [7] (part of the chain shown); 195 with pNPB [2] (part of the chain shown); 66.3 ° in the series with PET [8] (part of the chain shown); 1540 AU with PET [13]. The “Proxy for plastic degradation” value in the series with PET [3] (part of the chain shown) is 48 mmol/mol; with PET [4] (part of the chain shown), 32 mmol/mol; with MHET (50 °C, part of the chain shown), 5 mmol/mol; with MHET (part of the chain shown), 25 mmol/mol; in the series with PET [5] (part of the chain shown), 63 mmol/mol; with PET [9] (part of the chain shown) it was 56. Further, the “Proxy for plastic degradation” value with PET [10] (2 h, part of the chain shown) was 119; with PET [11] (part of the chain shown), 48.9; in the series with PET [12] (part of the chain shown), 32.

B4: unnamed (protein)
chain: MANPYERGPNPTDALLEARSGPFSVSEERASRFGADGFGGGTIYYPRENNTYGAVAISPGYTGTQASVAWLGERIASHGFVVITIDTNTTLDQPDSRARQLNAALDYMINDASSAVRSRIDSSRLAVMGHSMGGGGTLRLASQRPDLKAAIPLTPWHLNKNWSSVRVPTLIIGADLDTIAPVLTHARPFYNSLPTSISKAYLELDGATHFAPNIPNKIIGKYSVAWLKRFVDNDTRYTQFLCPGPRDGLFGEVEEYRSTCPF
As to B4, the results for the Km with p-NP-C2 (part of the chain shown) and with p-NP-C4 (part of the chain shown) were 200 µM and 2130 µM, respectively. For the same protein, the turnover number (kcat) with p-NP-C2 (part of the chain shown) is 2.4 s⁻¹; in the series with p-NP-C4 (part of the chain shown), 5.3 s⁻¹. The kcat/Km with p-NP-C2 (part of the chain shown) was found to be 12000 M⁻¹ s⁻¹; in the series with p-NP-C4 (part of the chain shown) it was 2480 M⁻¹ s⁻¹. For the same protein, the “Proxy for plastic degradation” value came to 200 µM with pNP-C2 [6] (part of the chain shown); 2130 µM with pNPB [1] (part of the chain shown); 2.4 in the series with pNP-C2 [7] (part of the chain shown); 5.3 with pNPB [2] (part of the chain shown); 28 mmol/mol with PET [3] (part of the chain shown); 29 mmol/mol with PET [4] (part of the chain shown). The “Proxy for plastic degradation” value stood at 13 mmol/mol in the series with MHET (50 °C, part of the chain shown); 18 mmol/mol with MHET (part of the chain shown); 76 mmol/mol with PET [5] (part of the chain shown); 5 in the series with PET [9] (part of the chain shown); 90 with PET [10] (2 h, part of the chain shown); 27.9 in the series with PET [11] (part of the chain shown). Moreover, the “Proxy for plastic degradation” value with PET [12] (part of the chain shown) amounted to 28.6.
